# Test results taken from paper PMC2722380.
# Target: His-tagged p55 fusion protein (recombinant full length human erythrocyte p55), expressed in E. coli (human) (UniProt Q00013)
# Assay: SPR
# Sequence of His-tagged p55 fusion protein (recombinant full length human erythrocyte p55), expressed in E. coli (human) (Q00013 whole entry, the tested form may be a part): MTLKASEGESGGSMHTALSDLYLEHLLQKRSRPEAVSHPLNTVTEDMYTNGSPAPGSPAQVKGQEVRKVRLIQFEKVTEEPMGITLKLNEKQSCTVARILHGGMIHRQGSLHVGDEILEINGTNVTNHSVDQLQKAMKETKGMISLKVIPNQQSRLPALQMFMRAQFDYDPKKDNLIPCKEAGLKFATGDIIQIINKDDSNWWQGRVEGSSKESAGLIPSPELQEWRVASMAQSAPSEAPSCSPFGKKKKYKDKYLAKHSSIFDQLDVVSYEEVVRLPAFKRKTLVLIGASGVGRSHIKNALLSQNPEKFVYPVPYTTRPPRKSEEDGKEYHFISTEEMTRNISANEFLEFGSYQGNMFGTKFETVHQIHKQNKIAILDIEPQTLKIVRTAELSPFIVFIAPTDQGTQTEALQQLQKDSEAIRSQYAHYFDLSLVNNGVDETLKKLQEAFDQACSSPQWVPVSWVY
Substance,Kd,koff,kon
MBP fusion of the exon 5-encoded peptide of protein 4.1R (domain or fragment),15 nM,0.0024 s⁻¹,160000 M⁻¹ s⁻¹
MBP fusion of the exon 10-encoded peptide of protein 4.1R (domain or fragment),30 nM,0.0018 s⁻¹,–
"MBP-FERMΔExon 5 fusion protein of human protein 4.1R (lacks exon 5, contains exon 10) (domain or fragment)",132 nM,0.0029 s⁻¹,22000 M⁻¹ s⁻¹
